# Assay: yeast display, Sf9 membrane polyspecificity reagent, FACS + sequencing; frameworks hold sequencing errors
# Outline: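 In a synthetic yeast display library (Saccharomyces cerevisiae BJ5465), nanobody expression was induced with galactose for 36–48 hours. FACS gates were set low and high (top ~1%) using anti-HA fluorescence for expression and streptavidin fluorescence for binding of the Sf9 membrane reagent. Each polyreactivity label is drawn from the gate of origin.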
row,Sequence,polyreactivity (PSR sort gate)
1,QVQLVESGGGLVQAGGSLRLSCAASGLTFAYNTMGWYRQAPGKEREFVASISSSGGNTYYADAVKGRFTISRDNAKNTVYLQMNSLKPEDTAVYYCAAKKKYHYFASYKRFEYWGQGTQVTVSS,low polyreactivity
2,QVQLVESGGGLVQAGGSLRLSCAASGLTFAYYAMGWYRQAPGKERELVATISRSGSTYYADSVKGRFTISRDNAKNTVYLQMNSLKPEDTAVDYCATAYHHYVYRQYTFGRGIYDFWGQGTQVTVSS,high polyreactivity
3,QVQLVESGGGLVQAGGSLRLSCAASGLTFAYYDMGWYRQAPGKERELVAAITSGGTTNYADSVKGRFTISRDNAKNTVYLQMNSLKPEDTAVYYCYADYYSRIVGVRIYDYWGQGTQVTVSS,low polyreactivity
4,QVQLVESGGGLVQAGGSLRLSCAASGLTFDGYAMGWYRQAPGKERELVARITRNGGITYYADSVKGRFTISRDNAKNTVYLQMNSLKPEDTAVYYCAAGQRLWKYYGVIGWTVTNYYYWGQGTQVTVSS,high polyreactivity
5,QVQLVESGGGLVQAGGSLRLSCAASGLTFDKYTMGWYRQAPGKERELVARISTSGSRTYYADSVKGRFTISRDNAKNTVYLQMNSLKPEDTAVYYCNKDGWIRRRRGYDYWGQGTQVTVSS,high polyreactivity
6,QVQLVESGGGLVQAGGSLRLSCAASGLTFDRYGMGWYRQAPGKERELVAAIDGSGTSTYYADSVKGRFTISRDNAKNTVYLQMNSLKPEDTAVYYCNAYWTYEFPSYDYWGQGTQVTVSS,low polyreactivity
7,QVQLVESGGGLVQAGGSLRLSCAASGLTFDVYTMGWYRQAPGKETEFVAAITWDGGITYYADSVKGRFTISRDNAKNSVYLQMNSLKPEDTAVYYCAADYALGEVYWYNYWGLGTQVTVSS,low polyreactivity
8,QVQLVESGGGLVQAGGSLRLSCAASGLTFDYYTMGWYRQAPGNERELVAAINWSGGRTYYADSVKGRFTISRDNAKNTVYLQMNSLKPEDTAVYYCAAETYRRHDYDYWGQGTQVTVSS,high polyreactivity
9,QVQLVESGGGLVQAGGSLRLSCAASGLTFEGNAMGWYRQAPGKERELVAAISRRGGSTYYADSVKGRFTISRHNAKNTVYLQMNSLKPEDSAVYYCAADRQPYTDKYDYWGQGTQVTVSS,high polyreactivity
10,QVQLVESGGGLVQAGGSLRLSCAASGLTFEGYAMGWYRQAPGKERELVAAISSSSGRTYYADSVKGRFTISRDNAKNTVYLQMNSLKPEDTAVYYCAARPGSGRSYTSDYWGQGTQVTVSS,high polyreactivity
11,QVQLVESGGGLVQAGGSLRLSCAASGLTFEHNAMGWYRQAPGKEREFVAVISWRGTSTYYADSVKGRFTISRDNAKNTVYLQMNSLKPEDTPVYYCATRYYGDDGYRYDHWGQGTQVTVSS,high polyreactivity
12,QVQLVESGGGLVQAGGSLRLSCAASGLTFERYAMGWYRQAPGKERELVAAISIRGGSTYYADSVKGRFTISRDNAKNTVYLQMNSLKPEDTAVYYCSADGRGREYDYWGQGTQVTVSS,low polyreactivity
13,QVQLVESGGGLVQAGGSLRLSCAASGLTFEYNAMGWYRQAPGKERELVASISSGGGTNYADSVKGRFTISRDNAKNTVYLQMNSLKPEDTAVYYCATDNYDWSCWAFRGYWYDYWGQGTQVTVSS,low polyreactivity
14,QVQLVESGGGLVQAGGSLRLSCAASGLTFFGYTMGWYREAPGKEREFVADITWSGGSTYYADSVKGRFTISRDNAKNTVYLQMNSLKPEDTAVYYCSVAPPNWDPFVDDTYLMDYWGQGTQVTVSS,low polyreactivity
15,QVQLVESGGGLVQAGGSLRLSCAASGLTFGDYAMGWYRQAPGKERELVAVISRSGGSTYYADSVKGRFTISRDNAKNTVYLQMNSLKTEDTAVYYCDKDAGLQKYHHDYWGQGTQVTVSS,low polyreactivity
16,QVQLVESGGGLVQAGGSLRLSCAASGLTFGFNAMGWYRQAPWKERELDAAISSGGSTYYADSVKGRFTISRDNAKNTVYLQMNSLKPEDTAVYYCAKSGGSSQYWYGYWGQGTQVTVSS,high polyreactivity
17,QVQLVESGGGLVQAGGSLRLSCAASGLTFGLYAMGWYRQAPGKERELVAVITAGGRTYYADSVKGRFTISRDNAKNTVYLQMNSLKPEDTAVYYCATVNYGSGRGYRRVYTAYYYWGQGTQVTVSS,low polyreactivity
18,QVQLVESGGGLVQAGGSLRLSCAASGLTFGRNAMGWYRQAPWKERELVAAISRSGGRTSYADSVKGRFTISRDNAKNTVYLQMNSLKPEDTAVYYCAARSDVYTHDYWGQGTQVTVSS,high polyreactivity
19,QVQLVESGGGLVQAGGSLRLSCAASGLTFGSYAMGWYRQAPGKERELVAAISRSGGSTYYADSVKGRFTISRDNAKNTVYLQMNSLKPEDTAVYYCNAVNPYYAPTDRRVGYDYWGQGTQVTVSS,high polyreactivity
20,QVQLVESGGGLVQAGGSLRLSCAASGLTFGSYTMGWYRQAPGRERDLVAAITSDGSTNYADSVKGRFTISRDNAKNTVYLQMNSLKPEDTAVYYCNKGETLYGSVPYDYWGQGTQVTVSS,high polyreactivity
21,QVQLVESGGGLVQAGGSLRLSCAASGLTFGVNAMGWYRQAPGKERELVAAISGSGGRTNYADSVKGRFTISRDNAKNTVYLQMNSLKPEDTAVYYCNARFPDWALSEISHSTTYGYWGQGTQVTVSS,low polyreactivity
22,QVQLVESGGGLVQAGGSLRLSCAASGLTFGWNAMGWYRQAPGKERELVAGITSDTITHYADSVKGRFTISRDNAKNTVYLQMNSLKPEDTAVYYCAVPRGVASLQKVEFGYWGQGTQVTVSS,low polyreactivity

row,Sequence,polyreactivity (PSR sort gate)
1,QVQLVESGGGLVQAGGSLRLSCAASGLTFGYYAMGWYRQAPGKEREFVASITWSGGTTYYADSVKGRFTISRDNAKNTVYLQMNSLKPEDTAVYYCAAQRSYAYEYWGQGTQVTVSS,high polyreactivity
2,QVQLVESGGGLVQAGGSLRLSCAASGLTFGYYSMGWYREAPGKERELVAAITYSGGSTYYADSVKGRFTISRDNAKNTVYLQMNSLKPEDTAVYYCAAEGPVYTTYEYWGQGTQVTVSS,low polyreactivity
3,QVQLVESGGGLVQAGGSLRLSCAASGLTFGYYVMGWYRQAPGKERELVAAISFRGVSTYYADSVKGRFTISRDNAKKTVDLQMNSLKPEDTAVNYCARRYTSKGGYDYWGQGTQVTVSS,high polyreactivity
4,QVQLVESGGGLVQAGGSLRLSCAASGLTFHRYAMGWYRQAPGKERELVAAINYSGGRTYYADSVKGRFTISRDNAKNTLYLQMNSLKPEDTAVYYCAAPRASGYYWGQGTQVTVSS,high polyreactivity
5,QVQLVESGGGLVQAGGSLRLSCAASGLTFHYYAMGWYRQAPGKERELVAAITATYYADSVKGRFTISRDNAKNTVYLQMNSLKPEDTAVYYCNAFLYPKQPLSPPDPTFEGGYWGQGTQVTVSS,low polyreactivity
6,QVQLVESGGGLVQAGGSLRLSCAASGLTFIEYAKGWYRQAPGKERELVAAISSGGRTYYADSVKGRFTISRDNAKNTVYLQMNSLKPEDTAVYYCNARGYRRWYNYWGQGTQVTVSS,high polyreactivity
7,QVQLVESGGGLVQAGGSLRLSCAASGLTFIFYAMGWYRQAPGKERELVATIRRSGSTYYADSVKGRFTISRDNAKNTVYLQMNSLKPEDTAVYYCNARYPYSYGDYWGQGTQVTVSS,high polyreactivity
8,QVQLVESGGGLVQAGGSLRLSCAASGLTFIYYAMGWYRQAPGKERELVAAISVSGGSTSYADSVKGRFTISRDNAKNTVYLQMNSLKPEDTAVYYCAADWFVHKPRYQYSFDYWGQGTQVTVSS,low polyreactivity
9,QVQLVESGGGLVQAGGSLRLSCAASGLTFKDNAMGWYRQAPGKERELVAAISKGGGSTFYADSVKGRFTISRDYAKNTVYFQMNSLKPEDTAVYYCNADVGYRGGEEVYWGQGTQVTVSS,low polyreactivity
10,QVQLVESGGGLVQAGGSLRLSCAASGLTFKLYVMGWYRQAPRKERELVAAISGGGSTYYADSVKGRFTISRDNAKNTVYLQMYSLKPEDTAVYYCAAVRYFEYEYWGQGTQVTVSS,low polyreactivity
11,QVQLVESGGGLVQAGGSLRLSCAASGLTFKSYAMGWYRQAPGKETELVAAISWRGGRTYYADSVKGRFTISRDNAKNTVYLQMNSLKPEDTAVYYCNARSQQWWLSRYNYWGQGTQVTVSS,high polyreactivity
12,QVQLVESGGGLVQAGGSLRLSCAASGLTFKTYAMGWYRQAPGKERELVAAISRSGGSTSYADSVKGRFTISRDNAKNTVYLQLNSLIPEDTEVYYCAAKTYEPRKYDYWGQGTQVTVSS,high polyreactivity
13,QVQLVESGGGLVQAGGSLRLSCAASGLTFKYNAMGWYRQAPGKERELVAGISWSTSSTYYADSVKGRFTISRDNAKNTVYLQMNSLKPEDTAVYYCAVYTITGRVLRQGPLYRHYYWGQGTQVTVSS,high polyreactivity
14,QVQLVESGGGLVQAGGSLRLSCAASGLTFKYYAMGWYRQAPGKERELVAAITATGGRTYYADSVKGRFTISRDIAKNTVYLQLNSLNPEDTAVYYCNARQYQTYYFYKHDYWGQGTQVSVSS,high polyreactivity
15,QVQLVESGGGLVQAGGSLRLSCAASGLTFLGNAMGWYRQAPGKERELVASITFSGDSTYYADSVKGRFTISRDNAKNSVYLQMNSVKPEDTAVYYCAADGSRLYYWPFEYDYWGQGTQVTVSS,low polyreactivity
16,QVQLVESGGGLVQAGGSLRLSCAASGLTFLIYAMGWYIQAPRKERELVASITGRGGSTYYADSVKGRFTISRDNAKNTVYLQMNCLKPEDTAVYYCAASLRYYGLEMDYWGQGTQVTVSS,high polyreactivity
17,QVQLVESGGGLVQAGGSLRLSCAASGLTFNGYTMGWYRQAPGKERELVAGITHSGSTTYTDSVKGRFTISRDNAKNTVYLQMNSLKPEDTAVYYCNARLGKVRVKDDYWGQGTQVTVSS,low polyreactivity
18,QVQLVESGGGLVQAGGSLRLSCAASGLTFNLYAMGWYRQAPGKEWELVAAITRNGGSTYYADSVKGPFTISRDNAKNSVYLELNSLKPEDTAVYYCATGWLGTPYGYRRFGYWGQGTQVTVSS,high polyreactivity
19,QVQLVESGGGLVQAGGSLRLSCAASGLTFNRNAMGWYRQAPGKERELVARISRGGSTNYADSVKGRFTISRDNAKNTVYLQMNSLKPEDTAVYYCAKRGNPRSVVHYNSWGQGTQVTVSS,high polyreactivity
20,QVQLVESGGGLVQAGGSLRLSCAASGLTFNVYAMGWYRQAPGKERELVAAITRSTGRTYYADSVKGRFTISRDNAKNTVYLQMNSLIPEDTAVYYCNRVSRQYYYQRGFEYDYWGQGTQVTVSS,high polyreactivity
21,QVQLVESGGGLVQAGGSLRLSCAASGLTFNWNAMGWYRQAPGKERELVAAIRSSGGSTYADSVKGRFTISRDNAKNTVYLQMNSLKPEDTAVYYCAARSRVPPAGPRYDYWGQGTQVTVSS,high polyreactivity
